Assay results taken from PMC12103653 (2025).

Target: Leukemia inhibitory factor (LIF), un-glycosylated recombinant protein (human, UniProt P15018 23-202)
Experiment: SPR

Chain of Leukemia inhibitory factor (LIF), un-glycosylated recombinant protein (P15018 23-202): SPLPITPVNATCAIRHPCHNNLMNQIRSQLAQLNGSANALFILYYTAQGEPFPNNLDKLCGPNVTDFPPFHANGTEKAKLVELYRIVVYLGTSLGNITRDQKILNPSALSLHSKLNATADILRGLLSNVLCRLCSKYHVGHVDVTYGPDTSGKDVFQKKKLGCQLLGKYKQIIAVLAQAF

B1: LIF receptor LIFR (receptor)
chain: QKKGAPHDLKCVTNNLQVWNCSWKAPSGTGRGTDYEVCIENRSRSCYQLEKTSIKIPALSHGDYEITINSLHDFGSSTSKFTLNEQNVSLIPDTPEILNLSADFSTSTLYLKWNDRGSVFPHRSNVIWEIKVLRKESMELVKLVTHNTTLNGKDTLHHWSWASDMPLECAIHFVEIRCYIDNLHFSGLEEWSDWSPVKNISWIPDSQTKVFPQDKVILVGSDITFCCVSQEKVLSALIGHTNCPLIHLDGENVAIKIRNISVSASSGTNVVFTTEDNIFGTVIFAGYPPDTPQQLNCETHDLKEIICSWNPGRVTALVGPRATSYTLVESFSGKYVRLKRAEAPTNESYQLLFQMLPNQEIYNFTLNAHNPLGRSQSTILVNITEKVYPHTPTSFKVKDINSTAVKLSWHLPGNFAKINFLCEIEIKKSNSVQEQRNVTIKGVENSSYLVALDKLNPYTLYTFRIRCSTETFWKWSKWSNKKQHLTTEASPSKGPDTWREWSSDGKNLIIYWKPLPINEANGKILSYNVSCSSDEETQSLSEIPDPQHKAEIRLDKNDYIISVVAKNSVGSSPPSKIASMEIPNDDLKIEQVVGMGKGILLTWHYDPNMTCDYVIKWCNSSRSEPCLMDWRKVPSNSTETVIESDEFRPGIRYNFFLYGCRNQGYQLLRSMIGYIEELAPIVAPNFTVEDTSADSILVKWEDIPVEELRGFLRGYLFYFGKGERDTSKMRVLESGRSDIKVKNITDISQKTLRIADLQGKTSYHLVLRAYTDGGVGPEKSMYVVTKENS
- Kd: 6.31 µM
